Molecular target: SARS-CoV-2 B.1.351 (Beta) spike on pseudotyped virus (SARS-CoV-2 B.1.351) (UniProt P0DTC2)
Test: cell-based or functional assay

DMAb REGN10987 (FcWT) (antibody)
fold change of neutralization against B.1.351 pseudovirus relative to WA1/2020: < 3 fold
